Results published in patent publication US20030148956A1 (PROCTER AND GAMBLE, published 2003).
Ends that are not written are not given here.

Legend:
CRF2R = target: T1, CRF2R; experiment: cell-based or functional assay
T1 sequence (Q13324 whole entry, species assumed, looked up): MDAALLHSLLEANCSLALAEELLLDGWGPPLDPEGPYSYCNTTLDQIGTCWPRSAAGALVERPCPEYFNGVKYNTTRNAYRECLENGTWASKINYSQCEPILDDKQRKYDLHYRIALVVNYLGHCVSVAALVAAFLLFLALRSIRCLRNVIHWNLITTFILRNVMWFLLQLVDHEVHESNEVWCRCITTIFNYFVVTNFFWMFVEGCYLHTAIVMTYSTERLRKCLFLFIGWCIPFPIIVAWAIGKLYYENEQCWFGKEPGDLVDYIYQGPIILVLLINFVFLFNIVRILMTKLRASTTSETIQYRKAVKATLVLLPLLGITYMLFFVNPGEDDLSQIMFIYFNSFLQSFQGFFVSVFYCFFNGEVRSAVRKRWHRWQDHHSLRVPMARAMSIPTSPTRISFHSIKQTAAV

CRF1R = experiment: cell-based or functional assay

Binder: IVLSLDVPIGLLQILIEIEKQEKEKQQAANNARILARV-NH2 [SEQ ID NO 166]
- CRF2R EC50 (CRF2R): 3.7 nM
- CRF2R Emax (CRF2R): 99%
- CRF1R EC50 (CRF1R): 438 nM
- CRF1R Emax (CRF1R): 95%

Binder: IVLSLDVPIGLLQILLEQARARAAREQATSNRKLMEII-NH2 [SEQ ID NO 163]
- CRF2R EC50 (CRF2R): 4.49 nM
- CRF2R Emax (CRF2R): 96%
- CRF1R EC50 (CRF1R): > 100 nM
- CRF1R Emax (CRF1R): 13%

Binder: ZGPPISIDLPFQLLRKMIEIEKQEKEKQQAAANRLLLDTV (C-terminal amide) [SEQ ID NO 15]
- CRF2R EC50 (CRF2R): 6.56 nM
- CRF2R Emax (CRF2R): 97%
- CRF1R EC50 (CRF1R): 85.3 nM
- CRF1R Emax (CRF1R): 86%

Binder: ZGPPISIDLPFQLLRKMIEIEKQEKEKQQATTNRLLLDTV (C-terminal amide) [SEQ ID NO 16]
- CRF2R EC50 (CRF2R): 7.88 nM
- CRF2R Emax (CRF2R): 86%
- CRF1R EC50 (CRF1R): 136 nM
- CRF1R Emax (CRF1R): 98%

Binder: IVLSLDVPIGLLQILIEIEKQEKEKQQAANNRLLLDTI-NH2 [SEQ ID NO 154]
- CRF2R EC50 (CRF2R): 10.3 nM
- CRF2R Emax (CRF2R): 100%
- CRF1R EC50 (CRF1R): > 100 nM
- CRF1R Emax (CRF1R): 7%

Binder: ZGIVLSLDVPIGLLRKMIEIEKQEKEKQQAANNRLLLDTI (C-terminal amide) [SEQ ID NO 153]
- CRF2R EC50 (CRF2R): 9.28 nM
- CRF2R Emax (CRF2R): 97%
- CRF1R EC50 (CRF1R): > 100 nM
- CRF1R Emax (CRF1R): 7%

Binder: IVLSLDVPIGLLQILLEIEKQEKEKQQAANNRLLLDTI-NH2 [SEQ ID NO 158]
- CRF2R EC50 (CRF2R): 6.37 nM
- CRF2R Emax (CRF2R): 89%
- CRF1R EC50 (CRF1R): > 100 nM
- CRF1R Emax (CRF1R): 15%

Binder: SQEPPISLDLTFHLLREVLEQARARAAREQATTNARILARV-NH2 [SEQ ID NO 157]
- CRF2R EC50 (CRF2R): 42 nM
- CRF2R Emax (CRF2R): 60.6%
- CRF1R EC50 (CRF1R): 100 nM
- CRF1R Emax (CRF1R): 91%

Binder: ZGPPISIDLPLQLLRKMIEIEKQEKEKQQATTNARILARV (C-terminal amide) [SEQ ID NO 144]
- CRF2R EC50 (CRF2R): 9.16 nM
- CRF2R Emax (CRF2R): 85.5%
- CRF1R EC50 (CRF1R): 567 nM
- CRF1R Emax (CRF1R): 100%

Binder: ZGPPISIDVPTYLLRKMIEIEKQEKEKQQATTNARILARV (C-terminal amide) [SEQ ID NO 170]
- CRF2R EC50 (CRF2R): 75 nM
- CRF2R Emax (CRF2R): 83%
- CRF1R EC50 (CRF1R): 1000 nM
- CRF1R Emax (CRF1R): 9%

Binder: ZGPPISIDVPTYLLRILIEIEKQEKEKQQATTNARILARV (C-terminal amide) [SEQ ID NO 169]
- CRF2R EC50 (CRF2R): 17.8 nM
- CRF2R Emax (CRF2R): 93%
- CRF1R EC50 (CRF1R): 978 nM
- CRF1R Emax (CRF1R): 26%

Binder: ZGPPISIDLPFYLLRKMIEIEKQEKEKQQATTNARILARV (C-terminal amide) [SEQ ID NO 147]
- CRF2R EC50 (CRF2R): 6.75 nM
- CRF2R Emax (CRF2R): 94%
- CRF1R EC50 (CRF1R): 102 nM
- CRF1R Emax (CRF1R): 96%

Binder: ZGPPISIDLPFQLLRKMIEIEKQEKEKQQATTNRLLLATV (C-terminal amide) [SEQ ID NO 17]
- CRF2R EC50 (CRF2R): 10.2 nM
- CRF2R Emax (CRF2R): 96%
- CRF1R EC50 (CRF1R): 260 nM
- CRF1R Emax (CRF1R): 98%

Binder: ZGPPISIDLPLHLLRKMIEIEKQEKEKQQATTNARILARV (C-terminal amide) [SEQ ID NO 145]
- CRF2R EC50 (CRF2R): 7.8 nM
- CRF2R Emax (CRF2R): 69%
- CRF1R EC50 (CRF1R): 196 nM
- CRF1R Emax (CRF1R): 91.3%

Binder: ZGPPISIDLPIQLLRKMIEIEKQEKEKQQATTNARILARV (C-terminal amide) [SEQ ID NO 150]
- CRF2R EC50 (CRF2R): 34.6 nM
- CRF2R Emax (CRF2R): 70.5%
- CRF1R EC50 (CRF1R): 1000 nM
- CRF1R Emax (CRF1R): 5.7%

Binder: ZGPPISIDLPFQLLRKMIEIEKQEKEKQQATTNARILARV (C-terminal amide) [SEQ ID NO 148]
- CRF2R EC50 (CRF2R): 9.45 nM
- CRF2R Emax (CRF2R): 51.5%
- CRF1R EC50 (CRF1R): 295 nM
- CRF1R Emax (CRF1R): 100%

Binder: ZGPPISIDLPFHLLRKMIEIEKQEKEKQQATTNARILARV (C-terminal amide) [SEQ ID NO 146]
- CRF2R EC50 (CRF2R): 8.2 nM
- CRF2R Emax (CRF2R): 84.5%
- CRF1R EC50 (CRF1R): 103 nM
- CRF1R Emax (CRF1R): 100%

Binder: ZGPPISIDLPIYLLRKMIEIEKQEKEKQQATTNARILARV (C-terminal amide) [SEQ ID NO 149]
- CRF2R EC50 (CRF2R): 26.2 nM
- CRF2R Emax (CRF2R): 95.5%
- CRF1R EC50 (CRF1R): 1000 nM
- CRF1R Emax (CRF1R): 40.7%

Binder: ZGPPISIDLPTYLLRKMIEIEKQEKEKQQATTNARILARV (C-terminal amide) [SEQ ID NO 151]
- CRF2R EC50 (CRF2R): 36.8 nM
- CRF2R Emax (CRF2R): 96%
- CRF1R EC50 (CRF1R): 1000 nM
- CRF1R Emax (CRF1R): 19.9%

Binder: IVLSLDVPIGLLQILLEQEKQEKEKQQATTNARILARV-NH2 [SEQ ID NO 167]
- CRF2R EC50 (CRF2R): 13 nM
- CRF2R Emax (CRF2R): 100%
- CRF1R EC50 (CRF1R): 1000 nM
- CRF1R Emax (CRF1R): 15%

Binder: SEEPPISLDLTFHLLREVLEMARAEQLAQQAHTNARILARV-NH2 [SEQ ID NO 161]
- CRF2R EC50 (CRF2R): > 100 nM
- CRF2R Emax (CRF2R): 88%
- CRF1R EC50 (CRF1R): > 100 nM
- CRF1R Emax (CRF1R): 77%

Binder: ZGPPISIDLSLELLRKMIEQARARAAREQATTNARILARV (C-terminal amide) [SEQ ID NO 156]
- CRF2R EC50 (CRF2R): 9.29 nM
- CRF2R Emax (CRF2R): 79%
- CRF1R EC50 (CRF1R): > 100 nM
- CRF1R Emax (CRF1R): 6%

Binder: IVLSLDVPIGLLQTLLELARTQSQRERAEQNRIIFDSV-NH2 [SEQ ID NO 160]
- CRF2R EC50 (CRF2R): 9.15 nM
- CRF2R Emax (CRF2R): 87%
- CRF1R EC50 (CRF1R): > 100 nM
- CRF1R Emax (CRF1R): 10%

Binder: SEEPPISLDVPIGLLQEVLEMARAEQLAQQAHSNRKLMEII-NH2 [SEQ ID NO 162]
- CRF2R EC50 (CRF2R): > 100 nM
- CRF2R Emax (CRF2R): 7%
- CRF1R EC50 (CRF1R): > 100 nM
- CRF1R Emax (CRF1R): 11%

Binder: IVLSLDVPIGLLQILLEMARAEQLAQQAHSNRKLMEII-NH2 [SEQ ID NO 164]
- CRF2R EC50 (CRF2R): 2.24 nM
- CRF2R Emax (CRF2R): 92%
- CRF1R EC50 (CRF1R): > 100 nM
- CRF1R Emax (CRF1R): 26%

Binder: IVLSLDVPIGLLQILLEQTKADQLAQQAHSNRKLLDIA-NH2 [SEQ ID NO 159]
- CRF2R EC50 (CRF2R): 90.8 nM
- CRF2R Emax (CRF2R): 62%
- CRF1R EC50 (CRF1R): > 100 nM
- CRF1R Emax (CRF1R): 9%

Binder: SQEIVLSLDVPIGLLREVLEMTKADQLAQQAHSNRKLLDIA-NH2 [SEQ ID NO 152]
- CRF2R EC50 (CRF2R): > 100 nM
- CRF2R Emax (CRF2R): 19%
- CRF1R EC50 (CRF1R): > 100 nM
- CRF1R Emax (CRF1R): 4%

Binder: IVLSLDVPIGLLQEVLEMARAEQLAQQAHSNRKLMEII-NH2 [SEQ ID NO 165]
- CRF2R EC50 (CRF2R): > 100 nM
- CRF2R Emax (CRF2R): 75%
- CRF1R EC50 (CRF1R): > 100 nM
- CRF1R Emax (CRF1R): 19%

Binder: IVLSLDVPIGLLQILIEIEKQEKEKQQAATTNARILARV-NH2 [SEQ ID NO 168]
- CRF2R EC50 (CRF2R): 4.9 nM
- CRF2R Emax (CRF2R): 75%
- CRF1R EC50 (CRF1R): 1000 nM
- CRF1R Emax (CRF1R): 52%

Binder: IVLSLDVPIGLLQILLEMTKADQLAQQAHSNRKLLDIA-NH2 [SEQ ID NO 155]
- CRF2R EC50 (CRF2R): 20.6 nM
- CRF2R Emax (CRF2R): 94%
- CRF1R EC50 (CRF1R): 40.6 nM
- CRF1R Emax (CRF1R): 16%
